Laboratory results: US20110318339A1

Columns and labels:
[1] = molecular target: recombinant mouse DLL4 (Cat# 1389-D4-050/CF, R&D Systems) (mouse) (UniProt Q9JI71); experiment: ELISA, mDLL4 coated 0.5 ng/ul, Fab […]
[2] = molecular target: recombinant mouse DLL4 (Cat# 1389-D4-050/CF, R&D Systems) (mouse) (UniProt Q9JI71); experiment: ELISA, mDLL4 coated 0.5 ng/ul, Fab 0.78 nM
[3] = molecular target: recombinant mouse DLL4 (Cat# 1389-D4-050/CF, R&D Systems) (mouse) (UniProt Q9JI71); experiment: ELISA, mDLL4 coated 0.5 ng/ul, Fab 6.25 nM
[4] = molecular target: recombinant mouse DLL4 (Cat# 1389-D4-050/CF, R&D Systems) (mouse) (UniProt Q9JI71); experiment: ELISA, mDLL4 coated 0.5 ng/ul, Fab 12.50 nM
[5] = molecular target: recombinant mouse DLL4 (Cat# 1389-D4-050/CF, R&D Systems) (mouse) (UniProt Q9JI71); experiment: ELISA, mDLL4 coated 0.5 ng/ul, Fab 25.00 nM
[6] = molecular target: recombinant mouse DLL4 (Cat# 1389-D4-050/CF, R&D Systems) (mouse) (UniProt Q9JI71); experiment: ELISA, mDLL4 coated 0.5 ng/ul, Fab 50.00 nM
[7] = molecular target: recombinant mouse DLL4 (Cat# 1389-D4-050/CF, R&D Systems) (mouse) (UniProt Q9JI71); experiment: ELISA, mDLL4 coated 0.5 ng/ul, Fab 100.00 nM
[8] = molecular target: recombinant human DLL4 (Cat# 1506-D4/CF, R&D Systems) (human) (UniProt Q9NR61); experiment: ELISA, DLL4 coated, Fab 25 nM
[9] = molecular target: recombinant human DLL4 (Cat# 1506-D4/CF, R&D Systems) (human) (UniProt Q9NR61); experiment: ELISA, DLL4 coated, Fab 50 nM
[10] = molecular target: recombinant human DLL4 (Cat# 1506-D4/CF, R&D Systems) (human) (UniProt Q9NR61); experiment: ELISA, DLL4 coated, Fab 100 nM
[11] = molecular target: recombinant human DLL4 (Cat# 1506-D4/CF, R&D Systems) (human) (UniProt Q9NR61); experiment: ELISA, DLL4 coated, Fab 12.5 nM
[12] = molecular target: recombinant human DLL4 (Cat# 1506-D4/CF, R&D Systems) (human) (UniProt Q9NR61); experiment: ELISA, DLL4 coated, Fab […]
[13] = molecular target: recombinant human DLL4 (Cat# 1506-D4/CF, R&D Systems) (human) (UniProt Q9NR61); experiment: ELISA, DLL4 coated, Fab 20 nM
[14] = molecular target: recombinant human DLL4 (Cat# 1506-D4/CF, R&D Systems) (human) (UniProt Q9NR61); experiment: ELISA, DLL4 coated, Fab 0.74 nM
[15] = molecular target: recombinant human DLL4 (Cat# 1506-D4/CF, R&D Systems) (human) (UniProt Q9NR61); experiment: ELISA, DLL4 coated, Fab 2.22 nM

Sequence of recombinant mouse DLL4 (Cat# 1389-D4-050/CF, R&D Systems) (mouse) (Q9JI71 28-525 limits assumed): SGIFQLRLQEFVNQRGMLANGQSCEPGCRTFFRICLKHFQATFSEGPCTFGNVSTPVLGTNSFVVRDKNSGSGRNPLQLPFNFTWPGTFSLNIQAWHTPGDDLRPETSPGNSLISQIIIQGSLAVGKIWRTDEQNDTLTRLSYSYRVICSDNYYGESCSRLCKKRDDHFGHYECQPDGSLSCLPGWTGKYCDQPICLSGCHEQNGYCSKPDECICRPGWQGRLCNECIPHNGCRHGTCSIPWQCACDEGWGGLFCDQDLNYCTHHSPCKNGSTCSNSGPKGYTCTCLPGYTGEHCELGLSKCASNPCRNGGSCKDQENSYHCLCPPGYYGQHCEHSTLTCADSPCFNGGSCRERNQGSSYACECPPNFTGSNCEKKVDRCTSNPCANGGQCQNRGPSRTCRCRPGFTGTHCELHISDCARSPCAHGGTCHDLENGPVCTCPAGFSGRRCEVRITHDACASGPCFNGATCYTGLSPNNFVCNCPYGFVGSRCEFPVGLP

B1: Fab VH5-51_IGHD5-18*01>3_IGHJ4*01 G100K/G104T G24T/S28R/G35V (H:KT TRV) & V3-4_IGLJ1*01 M94R/S96M (L:RM) (Fab, V domains shown)
VH: EVQLVQSGAEVKKPGESLKISCKTSGYRFTSYWIVWVRQMPGKGLEWMGIIYPGDSDTRYSPSFQGQVTISADKSISTAYLQWSSLKASDTAMYYCARRKYSYTYDYFDYWGQGTLVTVSS
VL: QTVVTQEPSFSVSPGGTVTLTCGLSSGSVSTSYYPSWYQQTPGQAPRTLIYSTNTRSSGVPDRFSGSILGNKAALTITGAQADDESDYYCVLYRGMGISYVFGTGTKVTVL
[1]
  ELISA absorbance at 450 nm: 0.131 A450
[2]
  ELISA absorbance at 450 nm: 0.13 A450
[3]
  ELISA absorbance at 450 nm: 0.148 A450
[4]
  ELISA absorbance at 450 nm: 0.186 A450
[5]
  ELISA absorbance at 450 nm: 0.232 A450
[6]
  ELISA absorbance at 450 nm: 0.331 A450
[7]
  ELISA absorbance at 450 nm: 0.457 A450

B2: Fab VH5-51_IGHD5-18*01>3_IGHJ4*01 G100K & V3-4_IGLJ1*01 (Fab, V domains shown)
VH: EVQLVQSGAEVKKPGESLKISCKGSGYSFTSYWIGWVRQMPGKGLEWMGIIYPGDSDTRYSPSFQGQVTISADKSISTAYLQWSSLKASDTAMYYCARRKYSYGYDYFDYWGQGTLVTVSS
VL: QTVVTQEPSFSVSPGGTVTLTCGLSSGSVSTSYYPSWYQQTPGQAPRTLIYSTNTRSSGVPDRFSGSILGNKAALTITGAQADDESDYYCVLYMGSGISYVFGTGTKVTVL
[8]
  ELISA absorbance at 450 nm: 0.18 A450
[9]
  ELISA absorbance at 450 nm: 0.19 A450
[10]
  ELISA absorbance at 450 nm: 0.2 A450
[11]
  ELISA absorbance at 450 nm: 0.19 A450

B3: Fab VH5-51_IGHD5-18*01>3_IGHJ4*01 G100K/G104T G24T/S28R/G35V Y107F & V3-4_IGLJ1*01 (Fab, V domains shown)
VH: EVQLVQSGAEVKKPGESLKISCKTSGYRFTSYWIVWVRQMPGKGLEWMGIIYPGDSDTRYSPSFQGQVTISADKSISTAYLQWSSLKASDTAMYYCARRKYSYTYDFFDYWGQGTLVTVSS
VL: QTVVTQEPSFSVSPGGTVTLTCGLSSGSVSTSYYPSWYQQTPGQAPRTLIYSTNTRSSGVPDRFSGSILGNKAALTITGAQADDESDYYCVLYMGSGISYVFGTGTKVTVL
[8]
  ELISA absorbance at 450 nm: 0.2 A450
[9]
  ELISA absorbance at 450 nm: 0.24 A450
[10]
  ELISA absorbance at 450 nm: 0.28 A450
[11]
  ELISA absorbance at 450 nm: 0.21 A450

B4: Fab VH5-51_IGHD5-18*01>3_IGHJ4*01 G100K/G104T S28R & V3-4_IGLJ1*01 M94R/S96M (Fab, V domains shown)
VH: EVQLVQSGAEVKKPGESLKISCKGSGYRFTSYWIGWVRQMPGKGLEWMGIIYPGDSDTRYSPSFQGQVTISADKSISTAYLQWSSLKASDTAMYYCARRKYSYTYDYFDYWGQGTLVTVSS
VL: QTVVTQEPSFSVSPGGTVTLTCGLSSGSVSTSYYPSWYQQTPGQAPRTLIYSTNTRSSGVPDRFSGSILGNKAALTITGAQADDESDYYCVLYRGMGISYVFGTGTKVTVL
[12]
  ELISA absorbance at 450 nm: 0.001 A450
[13]
  ELISA absorbance at 450 nm: 0.011 A450
[14]
  ELISA absorbance at 450 nm: 0 A450
[15]
  ELISA absorbance at 450 nm: 0.003 A450

B5: Fab VH5-51_IGHD5-18*01>3_IGHJ4*01 G100K/G104T G24T/S28R/G35V Y105H & V3-4_IGLJ1*01 (Fab, V domains shown)
VH: EVQLVQSGAEVKKPGESLKISCKTSGYRFTSYWIVWVRQMPGKGLEWMGIIYPGDSDTRYSPSFQGQVTISADKSISTAYLQWSSLKASDTAMYYCARRKYSYTHDYFDYWGQGTLVTVSS
VL: QTVVTQEPSFSVSPGGTVTLTCGLSSGSVSTSYYPSWYQQTPGQAPRTLIYSTNTRSSGVPDRFSGSILGNKAALTITGAQADDESDYYCVLYMGSGISYVFGTGTKVTVL
[8]
  ELISA absorbance at 450 nm: 0.19 A450
[9]
  ELISA absorbance at 450 nm: 0.2 A450
[10]
  ELISA absorbance at 450 nm: 0.23 A450
[11]
  ELISA absorbance at 450 nm: 0.21 A450

B6: Fab VH5-51_IGHD5-18*01>3_IGHJ4*01 G100K/G104T G24T/S28R/G35V Y105N & V3-4_IGLJ1*01 (Fab, V domains shown)
VH: EVQLVQSGAEVKKPGESLKISCKTSGYRFTSYWIVWVRQMPGKGLEWMGIIYPGDSDTRYSPSFQGQVTISADKSISTAYLQWSSLKASDTAMYYCARRKYSYTNDYFDYWGQGTLVTVSS
VL: QTVVTQEPSFSVSPGGTVTLTCGLSSGSVSTSYYPSWYQQTPGQAPRTLIYSTNTRSSGVPDRFSGSILGNKAALTITGAQADDESDYYCVLYMGSGISYVFGTGTKVTVL
[8]
  ELISA absorbance at 450 nm: 0.19 A450
[9]
  ELISA absorbance at 450 nm: 0.18 A450
[10]
  ELISA absorbance at 450 nm: 0.25 A450
[11]
  ELISA absorbance at 450 nm: 0.21 A450

B7: Fab VH5-51_IGHD5-18*01>3_IGHJ4*01 G104T & V3-4_IGLJ1*01 (Fab, V domains shown)
VH: EVQLVQSGAEVKKPGESLKISCKGSGYSFTSYWIGWVRQMPGKGLEWMGIIYPGDSDTRYSPSFQGQVTISADKSISTAYLQWSSLKASDTAMYYCARRGYSYTYDYFDYWGQGTLVTVSS
VL: QTVVTQEPSFSVSPGGTVTLTCGLSSGSVSTSYYPSWYQQTPGQAPRTLIYSTNTRSSGVPDRFSGSILGNKAALTITGAQADDESDYYCVLYMGSGISYVFGTGTKVTVL
[8]
  ELISA absorbance at 450 nm: 0.18 A450
[9]
  ELISA absorbance at 450 nm: 0.17 A450
[10]
  ELISA absorbance at 450 nm: 0.17 A450
[11]
  ELISA absorbance at 450 nm: 0.19 A450

B8: Fab VH5-51_IGHD5-18*01>3_IGHJ4*01 G100K/G104T G24A/S28R/G35V & V3-4_IGLJ1*01 M94R/S96M (Fab, V domains shown)
VH: EVQLVQSGAEVKKPGESLKISCKASGYRFTSYWIVWVRQMPGKGLEWMGIIYPGDSDTRYSPSFQGQVTISADKSISTAYLQWSSLKASDTAMYYCARRKYSYTYDYFDYWGQGTLVTVSS
VL: QTVVTQEPSFSVSPGGTVTLTCGLSSGSVSTSYYPSWYQQTPGQAPRTLIYSTNTRSSGVPDRFSGSILGNKAALTITGAQADDESDYYCVLYRGMGISYVFGTGTKVTVL
[12]
  ELISA absorbance at 450 nm: 0.034 A450
[13]
  ELISA absorbance at 450 nm: 0.006 A450
[14]
  ELISA absorbance at 450 nm: 0 A450
[15]
  ELISA absorbance at 450 nm: 0 A450

B9: Fab VH5-51_IGHD5-18*01>3_IGHJ4*01 G100K/G104T G24T/S28R/G35V D109Q & V3-4_IGLJ1*01 (Fab, V domains shown)
VH: EVQLVQSGAEVKKPGESLKISCKTSGYRFTSYWIVWVRQMPGKGLEWMGIIYPGDSDTRYSPSFQGQVTISADKSISTAYLQWSSLKASDTAMYYCARRKYSYTYDYFQYWGQGTLVTVSS
VL: QTVVTQEPSFSVSPGGTVTLTCGLSSGSVSTSYYPSWYQQTPGQAPRTLIYSTNTRSSGVPDRFSGSILGNKAALTITGAQADDESDYYCVLYMGSGISYVFGTGTKVTVL
[8]
  ELISA absorbance at 450 nm: 0.22 A450
[9]
  ELISA absorbance at 450 nm: 0.25 A450
[10]
  ELISA absorbance at 450 nm: 0.3 A450
[11]
  ELISA absorbance at 450 nm: 0.24 A450

B10: Fab VH5-51_IGHD5-18*01>3_IGHJ4*01 G100K/G104T G24L/S28R/G35V & V3-4_IGLJ1*01 M94R/S96M (Fab, V domains shown)
VH: EVQLVQSGAEVKKPGESLKISCKLSGYRFTSYWIVWVRQMPGKGLEWMGIIYPGDSDTRYSPSFQGQVTISADKSISTAYLQWSSLKASDTAMYYCARRKYSYTYDYFDYWGQGTLVTVSS
VL: QTVVTQEPSFSVSPGGTVTLTCGLSSGSVSTSYYPSWYQQTPGQAPRTLIYSTNTRSSGVPDRFSGSILGNKAALTITGAQADDESDYYCVLYRGMGISYVFGTGTKVTVL
[12]
  ELISA absorbance at 450 nm: 0 A450
[13]
  ELISA absorbance at 450 nm: 0.003 A450
[14]
  ELISA absorbance at 450 nm: 0 A450
[15]
  ELISA absorbance at 450 nm: 0 A450
